In the supplement of paper PMC9170038:

Columns and labels:
MS2 coat protein [1] = test: apparent KD of MS2 coat protein, switch ON state; designed switch direction (-1 OFF switch, 1 ON switch): -1; higher = weaker reporter binding; conditions: FMN input: 0 or 200 uM; Eterna round: R93 (includes R88 designs)
Outline: (§1)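 Designed RNA switches were transcribed on-chip from Illumina sequencing clusters. SNAP-549-labelled MS2 coat protein was titrated onto them in twofold steps from 0.7 or 1.5 nM to 3 µM in 100 mM Tris-HCl pH 7.5, 80 mM KCl, 4 mM MgCl2, either without or with constant ligand. Apparent KD reflects the per-design median of normalised cluster binding-curve fits.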

MS2 coat protein [2] = test: apparent KD of MS2 coat protein, switch OFF state (with FMN for OFF switches, without FMN for ON switches); designed switch direction (-1 OFF switch, 1 ON switch): -1; higher = weaker reporter binding; conditions: FMN input: 0 or 200 uM; Eterna round: R93 (includes R88 designs)
Outline: as §1

Sequence | apparent KD of MS2 coat protein (MS2 coat protein [1]) [µM] | apparent KD of MS2 coat protein (MS2 coat protein [2]) [µM]
CGUCCACAUGAGGAUCACCCAUGUUAGGAUAUCUAUACUAAAUACAAAACCCAAGUCAAGAGAAGGAGCAGGGC [Teteeresve] | 0.0139 | 0.012
AGAAAACAUGAGGAUCACCCAUGUGAGGAUAUCUAAAAGAAAAGAAAAGAAAGAAGAAGGAGAAGGCACAAGAA [Sanakhte] | 0.0374 | 0.0294
AACUGACAUGAGGAUCACCCAUGUCAGGAUAUGACAUCGAAAAAUAAAUAAAUCGUUGUCAGAAGGGACAUGAA [Design 76: Sub-opt S] | 0.0163 | 0.0149
AAGAAACAUGAGGAUCACCCAUGUGAGGAUAUGCAAGAAAGAAAGAAAGAAAGAAGAAGCAGAAGGCACAAAGG [Gaius Turranius] | 0.0424 | 0.0659
ACAAAGUGAGGAUAUGCUAUCGUACAAUAUAGUUAUCGUAUGCAGAAGGCACAUGAGGAUCACCCAUGUAAGAA [Ex 4 Tesla 9] | 0.0407 | 0.0367
AAAAAACAUGAGGAUCACCCAUGUUAGGAUAUGCUAUGGAAAAAUAAAAUAAAACAUAGCAGAAGGGACAAAAA [Mat - Exclusion 1 - Eli mod - D28] | 0.015 | 0.0383
AAAAAGGCAGGAUAUGCAUACCCACGGAAAAAAAGGUUGGGACAUGAGGAUCACCCAUGUAGAAGGGCCAAAAA [Dora Explored 13 - Jieux - Exclusion 2] | 0.0434 | 0.0224
GUAGUGUGAGGAUAUGAUUAAAAGAAGGGAAAGAGACUGCAUCAGAAGGCACAUGAGGAUCACCCAUGUAUGAA [JR_Exc004_Sub1223] | 0.0343 | 0.0457
ACGUACUCAGGAUAUACGAACAUGUCAAAAGACGUGAAGGGACAUGAGGAUCACCCAUGUAGAAGGGAGUACGA [Mat - Exclusion 2 - JL mod - D6] | 0.0336 | 0.148
AAGGAUAGAGGAUAUACAUAGAUACAGAUUCAUGUAGAACUACAUGAGGAUCACCCAUGUAGAAGGCUAUCAUA [AJ 32] | 0.0279 | 0.0891
AGAAAGUGAGGAUAUACAGAUAAAAAAACGAAAAAAAAUCUGUAGAAGGCACAUGAGGAUCACCCAUGUAAAGA [Mat - Exclusion 4 - Mayanna - D108] | 0.0379 | 0.0371
AAAAAACAUGAGGAUCACCCAUGUAAGGAUAUGCGAAAAUAAAAUAAAAUAAAAUAAAGCAGAAGGUACAAAAA [66%, Wbt, 1] | 0.0326 | 0.0377
AAACCACAUGAGGAUCACCCAUGUUAGGAUAUGCUAUGGAAAAUAAAAAUAAAACAUAGCAGAAGGGACAAAAA [Denovo 7] | 0.0193 | 0.0187
AACUGACAUGAGGAUCACCCAUGUCAGGAUAUGCUUCAUAAAAAAAAAAAAAAAUGAUGCAGAAGGGACAUGGG [Design 32 :P Sub-opt 8] | 0.0416 | 0.11
AAGAAACAUGAGGAUCACCCAUGUGAGGAUAUCGAAAAGAAAAGAAAAGAAAGAAGAACGAGAAGGCACAAAGG [Neferkare (V) Tereru] | 0.0527 | 0.0762
AAGAAGGAAGGAUAUACAUGAGGAUCACCCAUGUAAAAGAAAGAAAGGGAAAAGAAAAGUAGAAGGUCCAAGAA [Aakheperre Setepenre Osorkon] | 0.0254 | 0.0387
AAAAGACAUGAGGAUCACCCAUGUGAGGAUAUGACGUAAAUAAAGAAAGAAGAAAUCGUCAGAAGGCACACCUA [55%, Disencluded 2, 1] | 0.0295 | 0.0634
CUCAAGUCAGGAUAUUAAAGAAAAGAAGAGAAAGAAAAGAAUAAGAAGGGACAUGAGGAUCACCCAUGUAAGAA [EteRNA is fun!] | 0.0573 | 0.0309
AGUGAGUGAGGAUAUGCUAGAAGAAUAAAAGAAAUAACGUAGCAGAAGGCACAUGAGGAUCACCCAUGUACACA [May 66] | 0.0256 | 0.0225
